Assays:
wild-type (WT) YU2 gp120 = target: T1, wild-type (WT) YU2 gp120 (HIV-1, UniProt P35961 32-498); assay: ELISA, antigen coated at 2 µg/ml
T1 construct: domain: gp120

[1] = target: HIV-1 Env of pseudovirus CH181 (HIV-1); assay: cell-based or functional assay
[2] = target: HIV-1 Env of pseudovirus MW965 (HIV-1); assay: cell-based or functional assay
[3] = target: HIV-1 Env of pseudovirus CH117 (HIV-1); assay: cell-based or functional assay
[4] = target: HIV-1 Env of pseudovirus Du422 (HIV-1); assay: cell-based or functional assay
[5] = target: HIV-1 Env of pseudovirus BJMSM2498 (HIV-1); assay: cell-based or functional assay
[6] = target: HIV-1 Env of pseudovirus RHPA4259 (HIV-1); assay: cell-based or functional assay
[7] = target: HIV-1 Env of pseudovirus CAAN5342 (HIV-1); assay: cell-based or functional assay
[8] = target: HIV-1 Env of pseudovirus BJMSM2316 (HIV-1); assay: cell-based or functional assay
[9] = target: HIV-1 Env of pseudovirus Q842 (HIV-1); assay: cell-based or functional assay
[10] = target: HIV-1 Env of pseudovirus AC10 (HIV-1); assay: cell-based or functional assay
[11] = target: HIV-1 Env of pseudovirus ZM109F (HIV-1); assay: cell-based or functional assay
[12] = target: HIV-1 Env of pseudovirus CH120 (HIV-1); assay: cell-based or functional assay
[13] = target: HIV-1 Env of pseudovirus QH0692 (HIV-1); assay: cell-based or functional assay
[14] = target: HIV-1 Env of pseudovirus Q461 (HIV-1); assay: cell-based or functional assay
[15] = target: HIV-1 Env of pseudovirus SF162 (HIV-1, UniProt P19550 32-847); assay: cell-based or functional assay
[16] = target: HIV-1 Env of pseudovirus CH110 (HIV-1); assay: cell-based or functional assay
[17] = target: HIV-1 Env of pseudovirus ZM249M (HIV-1); assay: cell-based or functional assay
[18] = target: HIV-1 Env of pseudovirus TRJO4551 (HIV-1); assay: cell-based or functional assay
[19] = target: HIV-1 Env of pseudovirus Q259 (HIV-1); assay: cell-based or functional assay
[20] = target: HIV-1 Env of pseudovirus CAP45 (HIV-1); assay: cell-based or functional assay
[21] = target: HIV-1 Env of pseudovirus PV0.4 (HIV-1); assay: cell-based or functional assay
[22] = target: HIV-1 Env of pseudovirus SC422661 (HIV-1); assay: cell-based or functional assay
[23] = target: HIV-1 Env of pseudovirus BJMSM2249 (HIV-1); assay: cell-based or functional assay
[24] = target: HIV-1 Env of pseudovirus Q769 (HIV-1); assay: cell-based or functional assay
[25] = target: HIV-1 Env of pseudovirus REJO4541 (HIV-1); assay: cell-based or functional assay
[26] = target: HIV-1 Env of pseudovirus CNE55 (HIV-1); assay: cell-based or functional assay
[27] = target: HIV-1 Env of pseudovirus BJOX2000 (HIV-1); assay: cell-based or functional assay
[28] = target: HIV-1 Env of pseudovirus CH119.10 (HIV-1); assay: cell-based or functional assay
[29] = target: HIV-1 Env of pseudovirus 398-F1 (HIV-1); assay: cell-based or functional assay
[30] = target: HIV-1 Env of pseudovirus X2278 (HIV-1); assay: cell-based or functional assay
[31] = target: HIV-1 Env of pseudovirus Ce0217 (HIV-1); assay: cell-based or functional assay
[32] = target: HIV-1 Env of pseudovirus X1632 (HIV-1); assay: cell-based or functional assay
[33] = target: HIV-1 Env of pseudovirus TRO.11 (HIV-1); assay: cell-based or functional assay
[34] = target: HIV-1 Env of pseudovirus CNE8 (HIV-1); assay: cell-based or functional assay
[35] = target: HIV-1 Env of pseudovirus 246 (HIV-1); assay: cell-based or functional assay
[36] = target: HIV-1 Env of pseudovirus 25710 (HIV-1); assay: cell-based or functional assay
[37] = target: HIV-1 Env of pseudovirus Ce1176 (HIV-1); assay: cell-based or functional assay

B1: monoclonal antibody DRVIA7H+VRC01L (antibody, V domains shown)
VH: QVQLVESGTQFRRPGASVRLSCEASGYTFISSFIHWIRQGPGQGLEWMGWMNPRHGAVNYPRRFQGKVTMTRDTSIDTAYMELRDLRSDDTAMYFCVTSRTKDYDWDFVWGQGTLVVVSS
VL: EIVLTQSPGTLSLSPGETAIISCRTSQYGSLAWYQQRPGQAPRLVIYSGSTRAAGIPDRFSGSRWGPDYNLTISNLESGDFGVYYCQQYEFFGQGTKVQVDI
binding result (wild-type (WT) YU2 gp120): binds
IC50 in µg/ml, TZM-bl/pseudovirus neutralizing assay [1]: 0.98 µg/mL
IC50 in µg/ml, TZM-bl/pseudovirus neutralizing assay [2]: 0.2 µg/mL
IC50 in µg/ml, TZM-bl/pseudovirus neutralizing assay [3]: 0.59 µg/mL
IC50 in µg/ml, TZM-bl/pseudovirus neutralizing assay [4]: > 20 µg/mL
IC50 in µg/ml, TZM-bl/pseudovirus neutralizing assay [5]: 4.32 µg/mL
IC50 in µg/ml, TZM-bl/pseudovirus neutralizing assay [6]: 0.34 µg/mL
IC50 in µg/ml, TZM-bl/pseudovirus neutralizing assay [7]: 3.4 µg/mL
IC50 in µg/ml, TZM-bl/pseudovirus neutralizing assay [8]: 0.47 µg/mL
IC50 in µg/ml, TZM-bl/pseudovirus neutralizing assay [9]: 0.18 µg/mL
IC50 in µg/ml, TZM-bl/pseudovirus neutralizing assay [10]: 15.5 µg/mL
IC50 in µg/ml, TZM-bl/pseudovirus neutralizing assay [11]: 0.59 µg/mL
IC50 in µg/ml, TZM-bl/pseudovirus neutralizing assay [12]: 6.53 µg/mL
IC50 in µg/ml, TZM-bl/pseudovirus neutralizing assay [13]: 2.03 µg/mL
IC50 in µg/ml, TZM-bl/pseudovirus neutralizing assay [14]: 1.4 µg/mL
IC50 in µg/ml, TZM-bl/pseudovirus neutralizing assay [15]: 0.3 µg/mL
IC50 in µg/ml, TZM-bl/pseudovirus neutralizing assay [16]: 0.15 µg/mL
IC50 in µg/ml, TZM-bl/pseudovirus neutralizing assay [17]: 0.74 µg/mL
IC50 in µg/ml, TZM-bl/pseudovirus neutralizing assay [18]: 1.44 µg/mL
IC50 in µg/ml, TZM-bl/pseudovirus neutralizing assay [19]: > 20 µg/mL
IC50 in µg/ml, TZM-bl/pseudovirus neutralizing assay [20]: 0.84 µg/mL
IC50 in µg/ml, TZM-bl/pseudovirus neutralizing assay [21]: 1.18 µg/mL
IC50 in µg/ml, TZM-bl/pseudovirus neutralizing assay [22]: 0.58 µg/mL
IC50 in µg/ml, TZM-bl/pseudovirus neutralizing assay [23]: 2.25 µg/mL
IC50 in µg/ml, TZM-bl/pseudovirus neutralizing assay [24]: 0.3 µg/mL
IC50 in µg/ml, TZM-bl/pseudovirus neutralizing assay [25]: 0.75 µg/mL
IC50 in µg/ml, TZM-bl/pseudovirus neutralizing assay [26]: 1.23 µg/mL
IC50 in µg/ml, TZM-bl/pseudovirus neutralizing assay [27]: 15.9 µg/mL
IC50 in µg/ml, TZM-bl/pseudovirus neutralizing assay [28]: 1.85 µg/mL
IC50 in µg/ml, TZM-bl/pseudovirus neutralizing assay [29]: 0.8 µg/mL
IC50 in µg/ml, TZM-bl/pseudovirus neutralizing assay [30]: 0.34 µg/mL
IC50 in µg/ml, TZM-bl/pseudovirus neutralizing assay [31]: 0.65 µg/mL
IC50 in µg/ml, TZM-bl/pseudovirus neutralizing assay [32]: 0.61 µg/mL
IC50 in µg/ml, TZM-bl/pseudovirus neutralizing assay [33]: 1.18 µg/mL
IC50 in µg/ml, TZM-bl/pseudovirus neutralizing assay [34]: 1.48 µg/mL
IC50 in µg/ml, TZM-bl/pseudovirus neutralizing assay [35]: 1.29 µg/mL
IC50 in µg/ml, TZM-bl/pseudovirus neutralizing assay [36]: 2.5 µg/mL
IC50 in µg/ml, TZM-bl/pseudovirus neutralizing assay [37]: 4.08 µg/mL

Source: patent publication US20190002539A1 (NATIONAL CENTER FOR AIDS STD CONTROL AND PREVENTION CHINESE …, published 2019)
